Laboratory results: patent CN114573698A (dated 2022)
“And” between values parts separate entries of the source, which are not always exact repeats. Identical values can stand only once.

T1: α2-Fc (human)
T1 construct: no linker is mentioned; also called FcRn功能结构域α2与人Fc融合蛋白; FcRnα2
T1 chain: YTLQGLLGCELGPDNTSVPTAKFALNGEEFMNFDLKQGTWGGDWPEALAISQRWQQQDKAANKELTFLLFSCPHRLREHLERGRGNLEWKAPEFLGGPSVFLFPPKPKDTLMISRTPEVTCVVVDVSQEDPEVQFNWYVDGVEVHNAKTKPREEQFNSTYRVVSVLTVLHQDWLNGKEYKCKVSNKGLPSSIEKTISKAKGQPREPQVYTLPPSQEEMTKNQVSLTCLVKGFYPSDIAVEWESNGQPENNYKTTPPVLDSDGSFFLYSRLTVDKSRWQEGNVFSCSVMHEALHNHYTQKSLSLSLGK


Experiments:
[1] = biological target: T2, 人FcRn(β2M)-His蛋白 (human FcRn-ECD) (human, UniProt P61769 21-119); experiment: indirect ELISA, plate-bound human FcRn-ECD (method of Example 2.1)
T2 construct: Bought protein (Acro FCM-H5286); also called 人FcRn-ECD; FcRn-His

[2] = biological target: T2, 人FcRn(β2M)-His蛋白 (human FcRn-ECD); experiment: blocking ELISA pH 6.0, human IgG-biotin on plate-bound human FcRn-ECD (method of Example 4)
[3] = biological target: T2, 人FcRn(β2M)-His蛋白 (human FcRn-ECD); experiment: blocking ELISA, human IgG on plate-bound human FcRn-ECD
α2-Fc = biological target: T1, α2-Fc; experiment: Western blot on domain-Fc fusion

Row | EC50 [1] | IC50 [2] | IC50 [3] | binding result (α2-Fc) | Binder
1 | 0.00973 µg/mL and 0.06 nM | 0.0514 µg/mL and 0.34 nM | – | – | SPGA01-ch102 (antibody, human IgG4 S228P, kappa, also called 嵌合抗体SPGA01-ch102; SPGA1-ch102) heavy: not shown light: DIQMTQTTSSLSASLGDRVTISCSASQGISKYLNWYQQKPDGTVKLLIYYTSILHSGVPSRFSGSGSGTDYSLTISNLEPEDIATYFCQQYSKLPPTFGGGTKLEITRTVAAPSVFIFPPSDEQLKSGTASVVCLLNNFYPREAKVQWKVDNALQSGNSQESVTEQDSKDSTYSLSSTLTLSKADYEKHKVYACEVTHQGLSSPVTKSFNRGEC
2 | 0.00976 µg/mL and 0.06 nM | – | 0.0122 µg/mL and 0.08 nM | – | SPGA01-ch102mu (antibody, human IgG4 S228P, kappa, also called 突变的嵌合抗体SPGA01-ch102mu) heavy: QIQLVQSGPELKKPGETVKISCKASGYTFTNHGMNWLKQAPGKDLKWMGWINTYTGEPTYEDDFKGRFAFSLETSASTVYLQINNLKNEDTATYFCAREEIYGNYYYTMDYWGQGTSVTVSSASTKGPSVFPLAPCSRSTSESTAALGCLVKDYFPEPVTVSWNSGALTSGVHTFPAVLQSSGLYSLSSVVTVPSSSLGTKTYTCNVDHKPSNTKVDKRVESKYGPPCPPCPAPEFLGGPSVFLFPPKPKDTLYITREPEVTCVVVDVSQEDPEVQFNWYVDGVEVHNAKTKPREEQFNSTYRVVSVLTVLHQDWLNGKEYKCKVSNKGLPSSIEKTISKAKGQPREPQVYTLPPSQEEMTKNQVSLTCLVKGFYPSDIAVEWESNGQPENNYKTTPPVLDSDGSFFLYSRLTVDKSRWQEGNVFSCSVMHEALKFHYTQKSLSLSLGK light: DIQMTQTTSSLSASLGDRVTISCSASQGISKYLNWYQQKPDGTVKLLIYYTSILHSGVPSRFSGSGSGTDYSLTISNLEPEDIATYFCQQYSKLPPTFGGGTKLEITRTVAAPSVFIFPPSDEQLKSGTASVVCLLNNFYPREAKVQWKVDNALQSGNSQESVTEQDSKDSTYSLSSTLTLSKADYEKHKVYACEVTHQGLSSPVTKSFNRGEC
3 | – | – | – | binds | SPGA01-102 (antibody, V domains shown, Mouse monoclonal antibody from a hybridoma, purified on Protein G and detected with anti-mouse IgG; also called 鼠源抗人FcRn单克隆抗体) VH: QIQLVQSGPELKKPGETVKISCKASGYTFTNHGMNWLKQAPGKDLKWMGWINTYTGEPTYEDDFKGRFAFSLETSASTVYLQINNLKNEDTATYFCAREEIYGNYYYTMDYWGQGTSVTVSS VL: DIQMTQTTSSLSASLGDRVTISCSASQGISKYLNWYQQKPDGTVKLLIYYTSILHSGVPSRFSGSGSGTDYSLTISNLEPEDIATYFCQQYSKLPPTFGGGTKLEIT
